# Measurements as given in PMC4556617, “Experimental Evidence for a Revision in the Annotation of Putative Pyridoxamine 5'-Phosphate Oxidases P(N/M)P from Fungi” (PLoS ONE, 2015).
# T1: Pdx3 (Saccharomyces cerevisiae, UniProt P38075)
# T1 construct: full-length, synthetic gene in pET28a (NdeI/BamHI), N-terminal His-tag cut by thrombin; E. coli BL21 DE3 Rosetta; 27189 Da; homodimer
# T1 sequence (P38075 1-228): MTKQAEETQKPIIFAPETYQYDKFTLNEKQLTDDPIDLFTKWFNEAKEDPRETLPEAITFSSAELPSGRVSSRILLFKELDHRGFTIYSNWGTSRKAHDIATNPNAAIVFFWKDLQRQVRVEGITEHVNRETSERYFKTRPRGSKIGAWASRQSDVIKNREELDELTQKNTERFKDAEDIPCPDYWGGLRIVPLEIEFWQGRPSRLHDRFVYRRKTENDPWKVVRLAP
# B1: Pdx3 (enzyme, S. cerevisiae, UniProt P38075 1-228, looked up)
# chain: T1 sequence (P38075 1-228)
# notes: expected mass after thrombin digestion 27189 Da; A few residues of the vector probably remain after thrombin cleavage (surmised); also called P(N/M)P oxidase; pyridoxamine 5'-phosphate oxidase; source: E. coli BL21 DE3 Rosetta, purified (His Trap HP, thrombin digestion, Superdex 200 gel filtration); not shown: His-tag, N-terminal, cleaved
# B2: Ypr172w (natural protein, S. cerevisiae, UniProt Q06608 1-200, looked up)
# chain: MAWTSTLPAHLLNLIKNSKYVHVATCSKDCIPSVALMNYIYVPGEKLFGQTDNKNDYIIFVSPQDTQKFYNIKENPKVALLFHDWIIANNLSVGKESISGTPTPTSIPHEEQRQSELLNLLQELNQAELNQMSASIGGETEIVNPESEESKYYKDLILKANPDAKAFIFEKNTAVVKVRIDNARVSNNENRTMFLSKGKS
# notes: expected mass after thrombin digestion 22788 Da; A few residues of the vector probably remain after thrombin cleavage (surmised); also called putative P(N/M)P oxidase; source: E. coli BL21 DE3 Rosetta, purified (His Trap HP, thrombin digestion, Superdex 200 gel filtration); not shown: His-tag, N-terminal, cleaved
# B3: Ylr456w (natural protein, S. cerevisiae, UniProt Q06199 1-204, looked up)
# chain: MKLNEQIPKDLLRLIKSSKYVHVATCSSNCIPSVSLMHYIFVSSAETFHKHEYSIEIDCNDYIIFTVFEKSVTFRNVMSNPNVALLFHDWITAKNLTLRKKSVHSKDDFSFVESESTKFNNFLRDLNQSELNQVSATINGIADIVNPNSEESTYYRRLLLTVNPDADIFILGEDTAIIKVNIQKIKVSDMENNTSTYGQTVQPV
# notes: Ylr456w, product of the ORF YLR456W of S. cerevisiae (strain BY4741 cDNA), amplified with primers from the ATG to the stop codon, cloned NdeI/BamHI into pET28a; expected mass after thrombin digestion 23574 Da; A few residues of the vector probably remain at the N-terminus after thrombin cleavage (surmised); also called putative P(N/M)P oxidase; source: E. coli BL21 DE3 Rosetta, purified (His Trap …)
# Assays:
# Pdx3 = biological target: T1, Pdx3; assay: FMN fluorescence quenching titration (Ex […] nm, Em […] nm); size-exclusion chromatography co-elution; assay type: binding; settings: 1 uM FMN titrated with protein, 25 C, pH 7.4; protein as purified already carries FMN
# [1] = biological target: the molecule itself; assay: SEC; analytical size-exclusion chromatography, Superdex 75 3.3/300, 10 uM protein, 10 uL injected, buffer A (20 mM Tris, 150 mM NaCl, 1 mM DTT pH 7.4), tryptophan fluorescence; calibrated with transthyretin tetramers (54 kDa) and chymotrypsin monomers (25 kDa)
Molecule,"FMN fluorescence quenching titration (Ex 450 nm, Em 520 nm); size-exclusion chro (Pdx3)",stoichiometry N [1]
Cc1cc2nc3c(=O)[nH]c(=O)nc-3n(C[C@H](O)[C@H](O)[C@H](O)COP(=O)(O)O)c2cc1C [FMN],Pdx3 produced a clear quenching effect due to FMN binding,–
B1,–,2
B2,–,2
B3,–,2
